The values below are quoted from earlier work in article PMC4847942.

Where two headings read alike, the source gives them in different places.

Data set [1] addresses Bcl-XL (Homo sapiens) (UniProt Q07817).
For data set [2] the target is unchanged. The source holds these as a separate data set.

Chain of UniProt Q07817 (Q07817 whole entry): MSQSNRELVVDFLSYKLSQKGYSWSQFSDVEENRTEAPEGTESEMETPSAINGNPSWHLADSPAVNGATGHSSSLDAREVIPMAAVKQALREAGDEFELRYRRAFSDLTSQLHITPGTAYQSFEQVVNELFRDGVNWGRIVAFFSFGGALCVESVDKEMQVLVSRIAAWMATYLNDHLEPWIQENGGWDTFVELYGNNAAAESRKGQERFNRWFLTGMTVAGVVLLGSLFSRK

On to Bid BH3 helix BH3 (from UniProt P55957), for which the equilibrium dissociation constant (Kd) in the data set with Bcl-XL (Homo sapiens) [1] was 269 nM.
Regarding “stapled Bid BH3 helix BH3 (from UniProt P55957)”, the Kd in the data set with Bcl-XL (Homo sapiens) [2] is 39 nM.
